Results on 21 molecules are retold here after patent publication US20260184782A1 (TWIST BIOSCIENCE, published 2026).

In this assay the target is T1, recombinant human TIGIT (human, UniProt Q495A1 22-141, limits assumed).
T1 construct: recombinant human TIGIT used in Carterra SPR; also called hTIGIT
T1 sequence (looked up): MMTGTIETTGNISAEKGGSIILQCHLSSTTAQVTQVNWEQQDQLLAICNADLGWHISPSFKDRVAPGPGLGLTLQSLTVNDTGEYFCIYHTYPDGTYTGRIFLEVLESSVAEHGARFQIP
The assay can be described thus: SPR Carterra, average. The protocol: Binding affinities of VHH-Fc proteins to recombinant human TIGIT were measured by SPR using a Carterra instrument (Table 10A). […] Average values reported from measurements from 1-2 samples.

Substitutions are numbered along the chain they refer to.

B1: TIGIT-SC64 (Fc fusion)
VHH: EVQLVESGGGLVQPGGSLRLSCAASGFAFSNFGMGWFRQAPGKERELVSAIGWSGASTYYADSVKGRFTISADNSKNTAYLQMNSLKPEDTAVYYCARRGRTIPFDYWGQGTLVTVSS
notes: VHH-Fc fusion in assay
On to B1, for which the Kd is 19.6 nM, the koff stood at 0.00343 s⁻¹ and the kon is 207000 M⁻¹ s⁻¹.

B2: TIGIT-SC67 (Fc fusion)
VHH: EVQLVESGGGLVQPGGSLRLSCAASGFTFDRSWMGWFRQAPGKEREWVSTIYSNGTPAYADSVKGRFTISADNSKNTAYLQMNSLKPEDTAVYYCARRGLPSYSYGMDVWGQGTLVTVSS
notes: VHH-Fc fusion in assay
For the molecule B2, the Kd came to 18 nM, the koff stood at 0.00402 s⁻¹ and the kon was determined as 224000 M⁻¹ s⁻¹.

B3: TIGIT-SC136 (Fc fusion)
VHH: EVQLVESGGGLVQPGGSLRLSCAASGFTLENNMMGWFRQAPGKEREFVAAISRSGTLKAYADSVKGRFTISADNSKNTAYLQMNSLKPEDTAVYYCARGGELTTFYFGYWGQGTLVTVSS
notes: VHH-Fc fusion in assay
Consider B3, for which the Kd amounted to 20.4 nM, the koff amounted to 0.00254 s⁻¹ and the kon was determined as 209000 M⁻¹ s⁻¹.

B4: TIGIT-SC150 (Fc fusion)
VHH: EVQLVESGGGLVQPGGSLRLSCAASGFTLENNMMGWFRQAPGKEREFVAAISRSGTLKAYADSVKGRFTISADNSKNTAYLQVNSLKPEDTAVYYCVRVRGYSGYDCDYWGQGTLVTVSS
notes: VHH-Fc fusion in assay
In the case of B4, the Kd was 99.8 nM, the koff was found to be 0.0212 s⁻¹ and the kon was found to be 212000 M⁻¹ s⁻¹.

B5: TIGIT-SC22 (Fc fusion)
VHH: EVQLVESGGGLVQPGGSLRLSCAASGFTLENNMMGWFRQAPGKEREMVAAISWSGGSALYADSVKGRFTISADNSKNTAYLQMNSLKPEDTAVYYCARGDGYSYGNFDYWGQGTLVTVSS
notes: VHH-Fc fusion in assay
B5: the Kd was 17.7 nM, the koff came out at 0.00118 s⁻¹ and the kon stood at 70300 M⁻¹ s⁻¹.

B6: TIGIT-SC32 (Fc fusion)
VHH: EVQLVESGGGLVQPGGSLRLSCAASGFAFGDSWMGWFRQAPGKERELVAAIDWSGGSALYADSVKGRFTISADNSKNTALQMNSLKPEDTAVYYCAKVHSDFRAGWDVWGQGTLVTVSS
notes: VHH-Fc fusion in assay
For B6, the Kd amounted to 16.6 nM, the koff stood at 0.00243 s⁻¹ and the kon came to 147000 M⁻¹ s⁻¹.

B7: TIGIT-SC41 (Fc fusion)
VHH: EVQLVESGGGLVQPGGSLRLSCAASGMTTIGPMGWFRQAPGKEREFVASIAWGDGNTYYADSVKGRFTISADNSKNTAYLQMNSLKPEDTAVYYCVRGGSRTLWGQGTLVTVSS
notes: VHH-Fc fusion in assay
For B7, the Kd was found to be 19.2 nM, the koff was determined as 0.0118 s⁻¹ and the on-rate (kon) worked out at 631000 M⁻¹ s⁻¹.

B8: TIGIT-SC52 (Fc fusion)
VHH: EVQLVESGGGLVQPGGSLRLSCAASGFLFDSYAMGWFRQAPGKEREFVAAISTGGGWRTYADSVKGRFTISADNSKNTAYLQMNSLKPEDTAVYYCAKRGNDNWYFDLWGQGTLVTVSS
notes: VHH-Fc fusion in assay
With B8, the Kd was determined as 17.7 nM, the koff worked out at 0.00175 s⁻¹ and the kon amounted to 101000 M⁻¹ s⁻¹.

B9: TIGIT-SC126 (Fc fusion)
VHH: EVQLVESGGGLVQPGGSLRLSCAASGSIFSGNVMGWFRQAPGKERELVAAISNSASSTVYADSVKGRFTISADNSKNTAYLQMNSLKPEDTAVYYCARDWNLFDYWGQGTLVTVSS
notes: VHH-Fc fusion in assay
In the case of B9, the Kd amounted to 18.6 nM, the koff came to 0.013 s⁻¹ and the kon came out at 871000 M⁻¹ s⁻¹.

B10: TIGIT-SC127 (Fc fusion)
VHH: B9 VHH with V33A
notes: VHH-Fc fusion in assay
For B10, the Kd was determined as 32.8 nM, the koff turned out to be 0.0164 s⁻¹ and the kon amounted to 501000 M⁻¹ s⁻¹.

B11: TIGIT-SC119 (Fc fusion)
VHH: EVQLVESGGGLVQPGGSLRLSCAASGNTFSGGFMGWFRQAPGKEREWVASVLRGGYTWYADSVKGRFTISADNSKNTAYLQMNSLKPEDTAVYYCAKDGGWFDPWGQGTLVTVSS
notes: VHH-Fc fusion in assay
Turning to B11, the Kd was 19.7 nM, the koff stood at 0.00367 s⁻¹ and the kon amounted to 196000 M⁻¹ s⁻¹.

B12: TIGIT-SC120 (Fc fusion)
VHH: B11 VHH with N27F, G31P, G32S, F33W
notes: VHH-Fc fusion in assay
For B12, the Kd was 66.1 nM, the koff was determined as 0.00478 s⁻¹ and the kon was found to be 67600 M⁻¹ s⁻¹.

B13: TIGIT-SC165 (Fc fusion)
VHH: B11 VHH with A96T, K97T, D98E, G100S, W101G, F102W, D103R, P104N
notes: VHH-Fc fusion in assay
B13: the Kd stood at 62.5 nM, the koff was determined as 0.00484 s⁻¹ and the on-rate constant (kon) turned out to be 93300 M⁻¹ s⁻¹.

B14: TIGIT-SC189 (Fc fusion)
VHH: B11 VHH with A96V, K97T, G99V, W101A, F102P, P104Y
notes: VHH-Fc fusion in assay
For B14, the Kd amounted to 883 nM, the koff came out at 0.00528 s⁻¹ and the kon worked out at 8880 M⁻¹ s⁻¹.

B15: TIGIT-SC17 (Fc fusion)
VHH: B11 VHH with N27F, T28D, G31V, G32S, F33W, K97R, D98E, G100S, P104Y
notes: VHH-Fc fusion in assay
On to B15, for which the Kd is 47.9 nM, the dissociation rate constant (koff) is 0.00149 s⁻¹ and the kon stood at 31200 M⁻¹ s⁻¹.

B16: TIGIT-SC190 (Fc fusion)
VHH: EVQLVESGGGLVQPGGSLRLSCAASGFTFDRSWMGWFRQAPGKEREWVASVLRGGYTWYADSVKGRFTISADNSKNTAYLQMNSLKPEDTAVYYCVTDVGAPDYWGQGTLVTVSS
notes: VHH-Fc fusion in assay
For the molecule B16, the Kd worked out at 24.3 nM, the koff is 0.0015 s⁻¹ and the kon is 78400 M⁻¹ s⁻¹.

B17: TIGIT-SC37 (Fc fusion)
VHH: B11 VHH with A96V, K97F, D98G, G100V, F102Q, P104V
notes: VHH-Fc fusion in assay
For the molecule B17, the Kd stood at 23.7 nM, the koff came out at 0.00507 s⁻¹ and the kon stood at 214000 M⁻¹ s⁻¹.

B18: TIGIT-SC18 (Fc fusion)
VHH: EVQLVESGGGLVQPGGSLRLSCAASGFSLDYYAMGWFRQAPGKEREVVAIIDTNGDNTLYADSVKGRFTISADNSKNTAYLQMNSLKPEDTAVYYCARGRGYGDYVGAYWGQGTLVTVSS
notes: VHH-Fc fusion in assay
For the molecule B18, the Kd is 16.3 nM, the koff came to 0.00225 s⁻¹ and the kon was 141000 M⁻¹ s⁻¹.

B19: TIGIT-SC151 (Fc fusion)
VHH: EVQLVESGGGLVQPGGSLRLSCAASGFPFSIYPMGWFRQAPGKEREFVAAISASGTLRAYADSVKGRFTISADNSKNTAYLQMNSLKPEDTAVYYCARSSSWVRIFDYWGQGTLVTVSS
notes: VHH-Fc fusion in assay
B19: the Kd is 16.8 nM, the koff amounted to 0.00479 s⁻¹ and the kon is 285000 M⁻¹ s⁻¹.

B20: TIGIT-SC167 (Fc fusion)
VHH: EVQLVESGGGLVQPGGSLRLSCAASGRTFSFMGWFRQAPGKEREWVASVLRGGYTWYADSVKGRFTISADNSKNTAYLQMNSLKPEDTAVYYCAREGSGYASDYWGQGTLVTVSS
notes: VHH-Fc fusion in assay
As to B20, the Kd turned out to be 21.3 nM, the koff came to 0.00349 s⁻¹ and the kon was 164000 M⁻¹ s⁻¹.

B21: TIGIT-SC213 (Fc fusion)
VHH: EVQLVESGGGLVQPGGSLRLSCAASGTFQRINAMGWFRQAPGKEREFVAAIWRSGTLKAYADSVKGRFTISADNSKNTAYLQMNSLKPEDTAVYYCARWVGASGDYWIDYWGQGTLVTVSS
notes: VHH-Fc fusion in assay
B21: the Kd stood at 36.4 nM, the koff is 0.00285 s⁻¹ and the kon was found to be 78400 M⁻¹ s⁻¹.

The Kd is the concentration at which binding is half-saturated. As a reminder, the koff is the first-order rate constant of dissociation. The kon is the second-order rate constant of association.
